Measurements reported in patent publication US10450368.

Tests used:
CH0505_CON D7gp120/293i = assay: ELISA
CH505.w30.12D8gp120 = assay: ELISA
CH505w020.14D8gp120 = assay: ELISA
CH505w030.20D8gp120/293F = assay: ELISA
CH505.M5D8gp120293F = assay: direct-binding ELISA
CH505.M7D8gp120/293F = assay: direct-binding ELISA
CH505.M9D8gp120/293F = assay: direct-binding ELISA
[1] = target: CH505.TF mutant gp120 M20 (HIV-1); assay: direct-binding ELISA
[2] = target: CH505w136.B18D8gp120 (HIV-1); assay: direct-binding ELISA
[3] = target: CH505w136.B27D8gp120 (HIV-1); assay: direct-binding ELISA
[4] = target: CH505w136.B2D8gp120/293F (HIV-1); assay: direct-binding ELISA
[5] = target: CH505w136.B8D8gp120 (HIV-1); assay: direct-binding ELISA
[6] = target: CH505w160.A1D8gp120 (HIV-1); assay: direct-binding ELISA
[7] = target: CH505w160.C11D8gp120 (HIV-1); assay: direct-binding ELISA
[8] = target: CH505w160.C4D8gp120 (HIV-1); assay: direct-binding ELISA
[9] = target: HIV-1 CH505 transmitted/founder gp120 Env (HIV-1); assay: competition ELISA; competitor biotinylated CH240 on CH505 TF gp120
[10] = target: HIV-1 CH505 transmitted/founder gp120 Env (HIV-1); assay: competition ELISA; competitor biotinylated CH241 on CH505 TF gp120
[11] = target: HIV-1 CH505 transmitted/founder gp120 Env (HIV-1); assay: competition ELISA, blocking of CH239 binding to CH505 TF gp120

CH106 (antibody) was tested, and the LogAUC (CH0505_CON D7gp120/293i) was 11.9, the LogAUC (CH505.w30.12D8gp120) was 11.8 and the LogAUC (CH505w020.14D8gp120) was 11.2. The LogAUC (CH505w030.20D8gp120/293F) was 7.25, the LogAUC (CH505.M5D8gp120293F) was 8.37 and the LogAUC (CH505.M7D8gp120/293F) was 11. The LogAUC (CH505.M9D8gp120/293F) was 11, the LogAUC [1] was 10.7 and the LogAUC [2] was 13.3. For the same substance, the LogAUC [3] was 11.2, the LogAUC [4] was 12.7 and the LogAUC [5] was 11.7. For the same substance, the LogAUC [6] was 7.6, the LogAUC [7] was 8.15 and the LogAUC [8] was 6.8. For the same substance, the IC50 [9] was 2.3 µg/mL, the IC50 [10] was 14.3 µg/mL and the IC50 [11] was 4.6 µg/mL.
